Experimental data from paper PMC11587947.

Assays:
Experiment in all cases: turbidimetry of self-assembly
[1] = target: HIV-1 capsid protein CA mutant E45A (HIV-1 (strain BH10))
[2] = target: HIV-1 capsid protein CA mutant E180A (HIV-1 (strain BH10))
[3] = target: HIV-1 capsid protein CA mutant P38A (HIV-1 (strain BH10))
[4] = target: HIV-1 capsid protein CA mutant Q63A (HIV-1 (strain BH10))
[5] = target: HIV-1 capsid protein CA mutant Q192A (HIV-1 (strain BH10))
[6] = target: HIV-1 capsid protein CA mutant S178A (HIV-1 (strain BH10))
[7] = target: HIV-1 capsid protein CA mutant V165A (HIV-1 (strain BH10))

With “HIV-1 capsid protein CA mutant E45A (natural protein)” the growth rate constant kg relative to wt [1] was 11.5 fold of wt.
“HIV-1 capsid protein CA mutant E180A (natural protein)” was tested, and the growth rate constant kg relative to wt [2] was 0.8 fold of wt.
In the case of “HIV-1 capsid protein CA mutant P38A (natural protein)”, the growth rate constant kg relative to wt [3] is reported as 18.5 fold of wt.
“HIV-1 capsid protein CA mutant Q63A (natural protein)” was tested, and the growth rate constant kg relative to wt [4] was 0.6 fold of wt.
With “HIV-1 capsid protein CA mutant Q192A (natural protein)” the growth rate constant kg relative to wt [5] was 2.7 fold of wt.
In the case of “HIV-1 capsid protein CA mutant S178A (natural protein)”, the growth rate constant kg relative to wt [6] is reported as 5.6 fold of wt.
With “HIV-1 capsid protein CA mutant V165A (natural protein)” the growth rate constant kg relative to wt [7] was 28 fold of wt and the nucleation rate constant kn relative to wt [7] was > 100 fold of wt.
